This is an account of results in patent US20250042990A1 (Eli Lilly, published 2025).

Test [1] deals with T1, human IL-1β (human, UniProt P01584 117-269).
T1 construct: also called hu IL-1β; huIL-1β
As to the kind of experiment: MSD-SET (solution equilibrium titration, electrochemiluminescence), 37° C., 72 h equilibrium. How it is done:
MSD (Meso Scale Discovery) electrochemiluminescence assay is utilized to measure the affinity of Antibody I, Antibody II, Antibody III, and Canakinumab to human IL-1β. First, the equilibrium mixture of antibodies and human IL-1β is set up; in the mixture the antibody concentrations are kept constant at 1 pM, 10 pM, and 100 pM whereas the ligand is titrated in the concentration ranging from 0.9 nM to 0.00004 nM (2.5 times dilution between concentrations). The equilibrium mixture is set up in sealed non-binding 96-well plate at 37° C. for 72 hours.
MSD Gold Streptavidin plates are used to detect the free antibodies in the equilibrium mixture. The MSD plates are first blocked with blocking buffer (PBS+1% BSA) for 1 hour on a shaker set at 800 rpm and then washed 3 times with washing buffer PBST (PBS+0.05% Tween 20). The plates are coated with biotinylated human IL-1β followed by 3× washing with PBST. The equilibrium mixtures are added to the coated plate, incubated at room temperature with shaking for 2.5 mins and immediately washed 3× with PBST. The goat anti-human Sulfo-TAG antibody is added to the plate and incubated at room temperature for 1 hour with shaking. After three more washes, MSD Read Buffer at 1:2 concentration diluted in MilliQ water is added to the wells. Immediately afterwards, the plates are read using an MSD Sector Imager SI6000 instrument.

Test [2] deals with T1, human IL-1β. As to the kind of experiment: cell-based or functional assay.

B1: Canakinumab (antibody, human IgG4 S228P, kappa, F234A L235A, V domains shown)
VH: QVQLVESGGGVVQPGRSLRLSCAASGFTFSVYGMNWVRQAPGKGLEWVAIIWYDGDNQYYADSVKGRFTISRDNSKNTLYLQMNGLRAEDTAVYYCARDLRTGPFDYWGQGTLVTVSS
VL: EIVLTQSPDFQSVTPKEKVTITCRASQSIGSSLHWYQQKPDQSPKLLIKYASQSFSGVPSRFSGSGSGTDFTLTINSLEAEDAAAYYCHQSSSLPFTFGPGTKVDIKR
notes: Comparator
In the test with human IL-1β [1], B1 had a Kd of 0.0135 nM. The “Avg. IC50, neutralization of human IL-1β (4 pM) in HEK-Blue IL-1β SEAP reporter cells” value with human IL-1β [2] came to 26 pM.

By Kd is commonly meant the free concentration of one partner at which half of the binding sites on the other are occupied at equilibrium, for simple one-to-one binding.
